Reference: publication PMC4058633 (Nature protocols, 2013)

Target: the molecule itself
Assay: native MS

B1: pentameric ligand-gated ion channel of Erwinia chrysanthemi (ELIC) (natural protein)
chain: APADNAADARPVDVSVSIFINKIYGVNTLEQTYKVDGYIVAQWTGKPRKTPGDKPLIVENTQIERWINNGLWVPALEFINVVGSPDTGNKRLMLFPDGRVIYNARFLGSFSNDMDFRLFPFDRQQFVLELEPFSYNNQQLRFSDIQVYTENIDNEEIDEWWIRKASTHISDIRYDHLSSVQPNQNEFSRITVRIDAVRNPSYYLWSFILPLGLIIAASWSVFWLESFSERLQTSFTLMLTVVAYAFYTSNILPRLPYTTVIDQMIIAGYGSIFAAILLIIFAHHRQAMGVEDDLLIQRCRLAFPLGFLAIGCVLVIRGITL
For B1, the “stoichiometry N” value was 5.
